From patent US20200208162 come the findings set out here.

Data set [1] deals with TLNmir604S3Fw TALEN (encoded by cTNmir604Fw3-01). The data set can be described thus: cell_activity. As to conditions: as pair with P2; maize NP2222 immature embryos, Chry5d2 delivery of TALEN and donor; 5.6-24.9% with other strain combinations; printed half-site ends in T ….
Data set [2] deals with TLNmir604S3Rv TALEN (encoded by cTNmir604Rv3-01). Nature of the data set: cell_activity. As to conditions: as pair with P1; maize NP2222 immature embryos, Chry5d2 delivery of TALEN and donor; 5.6-24.9% with other strain combinations.

As for “TCCGTGCAGTGCAGTGT (double strand) [MIR604FR3 forward half-site]”, the activity in data set [1] came to 33.3%. Consider “TCCTAAACAAAGGAGGT (double strand) [MIR604FR3 reverse half-site]”, for which, in data set [2], the activity was 33.3%.
